Reference: PMC11480844

B1: H2-Kb / B10 (parent)
chain 1: GQQVQQSPASLVLQEGENAELQCNFSSTATRLQWFYQRPGGSLVSLLSNPSGTKHTGRLTSTTVTKERRGSLHISSSQITDSGTYLCAPGGSNAKLTFGKGTKLSVKS
chain 2: DPKIIQKPKYLVAVTGSEKILICEQYLGHNAMYWYRQSAKKPLEFMFSYSYQKLMDNQTASSRFQPQSSKKNHLDLQITALKPDDSATYFCASSLRGGNNQAPLFGEGTRLSVL
chain 3: not shown
chain 4: IQKTPQIQVYSRHPPENGKPNILNCYVTQFHPPHIEIQMLKNGKKIPKVEMSDMSFSKDWSFYILAHTEFTPTETDTYACRVKHDSMAEPKTVYWDRDM
chain 5: SIINFEKL
B2: H2-Kb / B2 (parent)
chain 1: GEQVEQRPPHLSVREGDSAVIICTYTDPNSYYFFWYKQEPGAGLQLLMKVFSSTEINEGQGFTVLLNKKDKQLSLNLTAAHPGDSAVYFCAVSQMSNYNVLYFGSGTKLTVEP
chain 2: EAAVTQSPRNKVAVTGGKVTLSCNQTNNHNNMYWYRQDTGHGLRLIHYSYGAGSTEKGDIPDGYKASRPSQENFSLILELATPSQTSVYFCASGTGGSGQLYFGEGSKLTVL
chain 3: not shown
chain 4: B1 chain 4
chain 5: SIINFEKL
B3: H2-Kb / G2 (parent)
chain 1: GEQVEQRPPHLSVREGDSAVIICTYTDPNSYYFFWYKQEPGAGLQLLMKVFSSTEINEGQGFTVLLNKKDKQLSLNLTAAHPGDSAVYFCAVRTNQGGRALIFGTGTTVSVSP
chain 2: EAAVTQSPRSKVAVTGGKVTLSCHQTNNHDYMYWYRQDTGHGLRLIHYSYVADSTEKGDIPDGYKASRPSQENFSLILELASLSQTAVYFCASSGTDTEVFFGKGTRLTVV
chain 3: not shown
chain 4: B1 chain 4
chain 5: SIINFEKL

Variants of: B1
Assay: % of reporter cells activated (NFAT-GFP), raw
Conditions: with B10; scale: % of reporter cells activated
Also: test concentration or dose not given here.

Ratio to parent: each site, then its substitutions
chain 5 I2: E 1.27, A 1.03, S 1.22, V 2.51, Y 1.22, P 1, L 0.898, Q 1.43, M 0.729, H 0.888, F 1.5, N 0.875, D 1.32, W 0.82, G 0.624, K 1.71, R 1.05, T 1.49, C 2.08
chain 5 E6: A 0.973, W 1.09, F 1.74, D 1.26, T 1.75, C 1.72, M 1.2, L 1.28, N 0.915, H 0.924, V 1.44, I 0.763, R 1.9, S 1.65, G 1.53, Y 1.57, Q 1.31, K 1.31, P 0.983
chain 5 S1: K 1.53, D 0.924, V 1.15, Q 0.831, A 0.498, L 1.32, G 0.831, H 1.08, C 1.07, W 1.07, E 0.864, T 1.1, Y 0.966, M 1.64, I 1.1, N 1.71, R 0.627, F 0.678, P 0.849
chain 5 I3: Y 1.97, G 1.61, W 0.831, M 1.2, H 1.53, S 1.22, R 0.903, V 1.12, D 0.864, N 0.966, E 1.13, K 1.47, Q 0.61, A 0.702, L 1.93, F 0.897, P 0.949, C 0.746, T 1.44
chain 5 F5: A 1.31, P 1.86, E 2.36, W 1.03, Y 1.41, Q 1.64, N 2.03, M 1.49, D 4.25, R 1.1, V 1.02, S 1.46, G 1.63, I 1.83, H 1.27, T 0.847, K 1.49, C 1.1, L 2.41
chain 5 K7: I 2.29, F 1.64, S 1.39, T 1.22, V 1.37, Y 0.995, Q 0.636, M 2.2, G 0.898, H 2.02, L 1.85, W 1, N 1.54, R 1.17, C 1.34, D 1.09, A 1.64, P 1.37, E 1.37
chain 5 N4: H 1.88, L 1.05, M 0.932, F 1.51, R 1.37, D 2.53, S 1.01, V 1.85, Q 1.19, A 1.86, G 1.28, Y 2.14, I 1.8, K 1.32, P 1.81, C 2.85, E 1.19, W 1.66, T 1.73
chain 5 L8: D 0.849, Q 1.11, P 1.39, E 1.53, W 0.814, C 1.27, H 0.966, K 1.12, S 0.903, N 0.915, V 0.51, A 1.07, T 0.915, I 0.769, Y 0.356, R 1.34, F 1.03, G 0.683, M 0.831

Variants of: B2
Assay: % of reporter cells activated (NFAT-GFP), raw
Conditions: with B2; scale: % of reporter cells activated

Ratio to parent: each site, then its substitutions
chain 5 N4: T 0.373, V 0.281, W 0.449, R 0.324, G 0.335, M 0.535, C 0.162, K 0.362, S 0.422, P 0.503, I 0.557, F 0.557
chain 5 S1: N 0.465, F 4.16, C 0.773, G 4.72, E 0.768, A 3.1, V 8.24, L 7.3, T 1.02, I 10.3, P 6.59, Y 6.51, R 5.53, H 1.74
chain 5 F5: D 1.06, P 0.703, I 1.82, N 1.95, K 0.741, C 3.54, V 0.346, W 0.519, G 0.438, A 1.27, M 1.38
chain 5 I3: D 0.481, T 0.4, Q 0.524, N 0.389, M 0.659, L 0.724, R 0.335, P 0.692, C 0.795, Y 0.476, S 0.4, K 0.427, E 0.432, G 0.568, H 0.676
chain 5 L8: K 1.17, Y 1.03, M 3.42, I 0.708, G 0.849, H 2.32, D 0.914, S 1.08, Q 2.52, E 0.551, A 8.62, T 1.29, C 2.06
chain 5 I2: T 1.68, F 2.06, D 1, N 0.589, M 2.66, P 0.892, A 1.58, V 1.91, R 1.36, Y 0.87, K 1.18, S 0.714, L 4.69, E 0.654, Q 0.573
chain 5 K7: N 1.84, L 2.05, W 7.51, M 2.53, D 3.15, C 2.46, E 1.49, S 3.71, Y 2.46, P 3.7, G 7.31
chain 5 E6: P 0.741, G 1.06, S 0.751, Q 0.724, T 0.746, D 0.6, H 0.497, I 0.67, W 0.6, R 0.573, N 0.535, L 0.53, V 0.422, F 0.584

Variants of: B3
Assay: % of reporter cells activated (NFAT-GFP), raw
Conditions: with G2; scale: % of reporter cells activated

Ratio to parent: each site, then its substitutions
chain 5 K7: G 0.936, F 1.94, C 1.88, Y 1.22, M 1.34, Q 1.12, V 1.13, S 0.824, I 1.83, A 1.58, H 1.63, N 1.18, R 0.664, T 1.27, E 1.46, P 1.46, D 1.29, L 2.32, W 1.34
chain 5 L8: Q 1.05, F 1.09, D 0.904, H 1.78, C 1.06, I 1.04, G 1.54, Y 0.744, W 0.768, P 1.24, K 1.4, N 1.54, A 1.06, V 1.32, E 0.696, S 1.15, R 1.45, M 2.01, T 0.944
chain 5 S1: Y 1.26, R 1.02, D 1.62, L 1.73, C 1.31, M 1.6, K 1.58, H 1.26, N 1.55, A 1.7, E 1.54, G 1.47, T 1.07, Q 1.22, I 1.45, V 0.976, P 1.42, F 1.63, W 1.34
chain 5 I3: Y 0.904
chain 5 N4: E 0.928, R 0.952, K 1.74, M 1.09, L 1.54, P 1.34, S 1.5, C 1.02, V 1.26, Y 0.936, H 1.38, F 1.32, W 2.17, I 1.13, Q 1.18, G 0.976, D 1.4, T 0.904, A 1.13
